Reference: patent US20220041999A1 (NEOGENE THERAPEUTICS B V, published 2022)
Where a chain is given by its changes, count along the chain named.

Assays:
FOS^MUT3AA-mDHFR_B = biological target: T1, FOS^MUT3AA-mDHFR_B; assay: cell-based or functional assay
T1 chain: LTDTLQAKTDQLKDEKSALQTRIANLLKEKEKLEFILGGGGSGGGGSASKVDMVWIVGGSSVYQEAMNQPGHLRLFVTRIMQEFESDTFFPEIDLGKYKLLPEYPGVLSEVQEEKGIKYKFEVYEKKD

FOS^MUT4AA-mDHFR_B [1] = biological target: T2, FOS^MUT4AA-mDHFR_B; assay: cell-based or functional assay
T2 chain: T1 chain with E29K

sFOS-mDHFR_B = biological target: T3, sFOS-mDHFR_B (murine); assay: cell-based or functional assay
T3 chain: T1 chain with K8E, K13E, R22E

sFOS^MUT8AA-mDHFR_B = biological target: T4, sFOS^MUT8AA-mDHFR_B; assay: cell-based or functional assay
T4 chain: T1 chain with T2R, E15N, K16Q, E29K, K30Q

FOS-mDHFRmt_B = biological target: T5, FOS-mDHFRmt_B; assay: cell-based or functional assay
T5 chain: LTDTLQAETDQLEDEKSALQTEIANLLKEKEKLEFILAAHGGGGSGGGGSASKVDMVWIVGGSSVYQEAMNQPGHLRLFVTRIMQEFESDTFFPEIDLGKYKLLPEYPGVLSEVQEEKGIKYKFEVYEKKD

FOS^WT-mDHFR_B [2] = biological target: T6, FOS^WT-mDHFR_B; assay: cell-based or functional assay
T6 chain: T5 chain

FOS^MUT4AA-mDHFR_B [3] = biological target: T2, FOS^MUT4AA-mDHFR_B; assay: split-DHFR complementation, 100 nM MTX 10 days, FACS
From the text: (§1) FIGS. 44A-44D show the results of MTX selection of double engineered BC76 T cells. Activated human primary T cells isolated from a buffy coat, BC76, were double-infected with retroviral vectors encoding an MTX-resistant murine DHFR^FS mutant (mDHFR) split into an N-terminal and C-terminal protein half (vector A and B), fused to heterodimerizing JUN-FOS leucine zippers. JUN^WT depicts a wildtype JUN leucine zipper, FOS^WT depicts a wildtype FOS leucine zipper, JUN^MUT3AA depicts a mutant JUN leucine zipper containing three acidic amino acids from FOS, FOS^MUT3AA depicts a mutant FOS leucine zipper containing three basic amino acids from JUN, JUN^MUT4AA depicts a mutant JUN leucine zipper containing four acidic amino acids from FOS, FOS^MUT4AA depicts a mutant FOS leucine zipper containing four basic amino acids from JUN. Vector A and B also encoded a Ly6G and CD90.2 transduction marker, respectively. Starting at 4 days post transduction, cells were either left untreated (row 1), or were treated with 100 nM MTX for 10 days (row 2), after which enrichment of double transduced cells was measured by FACS analysis.

FOS^WT-mDHFR_B [4] = biological target: T6, FOS^WT-mDHFR_B; assay: as above
From the text: as §1

FOS-mDHFRmt_B-2A = biological target: T7, FOS-mDHFRmt_B-2A; assay: cell-based or functional assay
T7 chain: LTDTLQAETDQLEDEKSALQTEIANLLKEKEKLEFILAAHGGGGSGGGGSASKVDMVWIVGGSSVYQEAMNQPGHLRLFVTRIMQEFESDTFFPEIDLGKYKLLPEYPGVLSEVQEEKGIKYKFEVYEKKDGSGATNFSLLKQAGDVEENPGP

Molecule sJUN-mDHFR_A has a fold enrichment of double transduced T cells (FACS), shorter zippers, donor A, 100 nM MTX 6 days (FIG. 49) (FOS^MUT3AA-mDHFR_B) of 1.7 fold, a fold enrichment of double transduced T cells (FACS), shorter zippers, donor B, 100 nM MTX 6 days (FIG. 49) (FOS^MUT3AA-mDHFR_B) of 1.4 fold and a fold enrichment of double transduced T cells (FACS), shorter zippers, donor A, 100 nM MTX 6 days (FIG. 50) (FOS^MUT4AA-mDHFR_B [1]) of 1.5 fold. The fold enrichment of double transduced T cells (FACS), shorter zippers, donor B, 100 nM MTX 6 days (FIG. 50) (FOS^MUT4AA-mDHFR_B [1]) was 1.2 fold, the fold enrichment of double transduced T cells (FACS), 100 nM MTX 6 days (FIGS. 51A-51B) (sFOS-mDHFR_B) was 12.3 fold and the fold enrichment of double transduced T cells (FACS), shorter zippers, donor A, 100 nM MTX 6 days (FIG. 49) (sFOS-mDHFR_B) was 66 fold. For the same molecule, the fold enrichment of double transduced T cells (FACS), shorter zippers, donor B, 100 nM MTX 6 days (FIG. 49) (sFOS-mDHFR_B) was 7.6 fold and the fold enrichment of double transduced T cells (FACS), 100 nM MTX 6 days (FIGS. 51A-51B) (sFOS^MUT8AA-mDHFR_B) was 1.5 fold.

B1: JUN-mDHFRmt_A (other)
chain: RIARLEEKVKTLKAQNSELASTANMLREQVAQLKQKVMNHGGGGSGGGGSMVRPLNCIVAVSQNMGIGKNGDFPWPPLRNESKYFQRMTTTSSVEGKQNLVIMGRKTWFSIPEKNRPLKDRINIVLSRELKEPPRGAHFLAKSLDDALRLIEQPEL
With B1 the “fold enrichment of double transduced T cells (FACS), BC45, 50 nM MTX 4 days” value (FOS-mDHFRmt_B) was 4.4 fold, the “fold enrichment of double transduced T cells (FACS), BC45, further 100 nM MTX 3 days, row 2” value (FOS-mDHFRmt_B) was 11.3 fold and the “fold enrichment of double transduced T cells (FACS), BC45, further 100 nM MTX 3 days, row 3” value (FOS-mDHFRmt_B) was 94 fold. The “fold enrichment of double transduced T cells (FACS), BC46, 50 nM MTX 4 days” value (FOS-mDHFRmt_B) was 6.2 fold, the “fold enrichment of double transduced T cells (FACS), BC46, further 100 nM MTX 3 days, row 2” value (FOS-mDHFRmt_B) was 4 fold and the “fold enrichment of double transduced T cells (FACS), BC46, further 100 nM MTX 3 days, row 3” value (FOS-mDHFRmt_B) was 23.2 fold.

B2: JUN^WT-mDHFR_A (other)
chain: B1 chain
In the case of B2, the “fold enrichment of double transduced T cells (FACS), BC54, 100 nM MTX 2 days” value (“fold enrichment … 100 nM MTX 2 days” for short) (FOS^WT-mDHFR_B [2]) is reported as 6.8 fold, the “fold enrichment of double transduced T cells (FACS), BC76, 100 nM MTX 10 days” value (“fold enrichment … 100 nM MTX 10 days” below) (FOS^WT-mDHFR_B [2]) is reported as 132 fold and the “fold enrichment of double transduced T cells (FACS), donor B, 100 nM MTX 4 days” value (from here on “fold enrichment … 100 nM MTX 4 days”) (FOS^WT-mDHFR_B [2]) is reported as 15.5 fold. The “fold enrichment … 100 nM MTX 2 days” value (FOS^MUT3AA-mDHFR_B) was 1.9 fold, the “fold enrichment … 100 nM MTX 10 days” value (FOS^MUT3AA-mDHFR_B) was 3.1 fold and the “fold enrichment … 100 nM MTX 4 days” value (FOS^MUT3AA-mDHFR_B) was 4 fold. The “fold enrichment … 100 nM MTX 10 days” value (FOS^MUT4AA-mDHFR_B [1]) was 1.4 fold and the binding result (FOS^MUT4AA-mDHFR_B [3]) was “no binding”.

B3: JUN^MUT3AA-mDHFR_A (other)
chain: RIARLEEEVKTLEAQNSELASTANMLEEQVAQLKQKVGGGGSGGGGSMVRPLNCIVAVSQNMGIGKNGDFPWPPLRNESKYFQRMTTTSSVEGKQNLVIMGRKTWFSIPEKNRPLKDRINIVLSRELKEPPRGAHFLAKSLDDALRLIEQPEL
For B3, the “fold enrichment … 100 nM MTX 2 days” value (FOS^WT-mDHFR_B [2]) was 3.9 fold, the “fold enrichment … 100 nM MTX 10 days” value (FOS^WT-mDHFR_B [2]) was 19 fold and the “fold enrichment … 100 nM MTX 4 days” value (FOS^WT-mDHFR_B [2]) was 11.2 fold. The “fold enrichment … 100 nM MTX 2 days” value (FOS^MUT3AA-mDHFR_B) was 5.6 fold, the “fold enrichment … 100 nM MTX 10 days” value (FOS^MUT3AA-mDHFR_B) was 72 fold and the “fold enrichment … 100 nM MTX 4 days” value (FOS^MUT3AA-mDHFR_B) was 10.5 fold. For the same molecule, the “fold enrichment of double transduced T cells (FACS), shorter zippers, donor A, 100 nM MTX 6 days (FIG. 49)” value (FOS^MUT3AA-mDHFR_B) was 49 fold, the “fold enrichment of double transduced T cells (FACS), shorter zippers, donor B, 100 nM MTX 6 days (FIG. 49)” value (FOS^MUT3AA-mDHFR_B) was 6.6 fold and the fold enrichment of double transduced T cells (FACS), shorter zippers, donor A, 100 nM MTX 6 days (FIG. 49) (sFOS-mDHFR_B) was 3.2 fold. The fold enrichment of double transduced T cells (FACS), shorter zippers, donor B, 100 nM MTX 6 days (FIG. 49) (sFOS-mDHFR_B) was 1.5 fold.

B4: sJUN^MUT8AA-mDHFR_A (other)
chain: B3 chain with R1T, Q15K, N16E, Q29K, K34E
For B4, the “fold enrichment of double transduced T cells (FACS), 100 nM MTX 6 days (FIGS. 51A-51B)” value (sFOS-mDHFR_B) was 0.9 fold and the “fold enrichment of double transduced T cells (FACS), 100 nM MTX 6 days (FIGS. 51A-51B)” value (sFOS^MUT8AA-mDHFR_B) was 2.2 fold.

B5: JUN^MUT4AA-mDHFR_A (other)
chain: B3 chain with K34E
B5 was tested, and the “fold enrichment … 100 nM MTX 10 days” value (FOS^WT-mDHFR_B [2]) was 2.6 fold, the “fold enrichment of double knock-in T cells (FACS), BC78, 100 nM MTX 6 days” value (FOS^MUT4AA-mDHFR_B [1]) was 54 fold and the “fold enrichment … 100 nM MTX 10 days” value (FOS^MUT4AA-mDHFR_B [1]) was 70 fold. For the same molecule, the “fold enrichment of double transduced T cells (FACS), shorter zippers, donor A, 100 nM MTX 6 days (FIG. 50)” value (FOS^MUT4AA-mDHFR_B [1]) was 39 fold, the “fold enrichment of double transduced T cells (FACS), shorter zippers, donor B, 100 nM MTX 6 days (FIG. 50)” value (FOS^MUT4AA-mDHFR_B [1]) was 4.7 fold and the fold enrichment of double transduced T cells (FACS), shorter zippers, donor A, 100 nM MTX 6 days (FIG. 50) (sFOS-mDHFR_B) was 2.2 fold. For the same molecule, the fold enrichment of double transduced T cells (FACS), shorter zippers, donor B, 100 nM MTX 6 days (FIG. 50) (sFOS-mDHFR_B) was 1.5 fold and the binding result (FOS^WT-mDHFR_B [4]) was “no binding”.

B6: JUN-mDHFRmt_A-2A (other)
chain: RIARLEEKVKTLKAQNSELASTANMLREQVAQLKQKVMNHGGGGSGGGGSMVRPLNCIVAVSQNMGIGKNGDFPWPPLRNESKYFQRMTTTSSVEGKQNLVIMGRKTWFSIPEKNRPLKDRINIVLSRELKEPPRGAHFLAKSLDDALRLIEQPELGSGATNFSLLKQAGDVEENPGP
With B6 the “fold enrichment of double transduced T cells (FACS), BC45, 25 nM MTX 4 days” value (FOS-mDHFRmt_B-2A) was 5.3 fold, the “fold enrichment of double transduced T cells (FACS), BC45, 50 nM MTX 4 days” value (FOS-mDHFRmt_B-2A) was 10.5 fold and the “fold enrichment of double transduced T cells (FACS), BC45, further 100 nM MTX 3 days, row 2” value (FOS-mDHFRmt_B-2A) was 15.5 fold. The “fold enrichment of double transduced T cells (FACS), BC45, further 100 nM MTX 3 days, row 3” value (FOS-mDHFRmt_B-2A) was 18.9 fold, the “fold enrichment of double transduced T cells (FACS), BC46, 25 nM MTX 4 days” value (FOS-mDHFRmt_B-2A) was 3.6 fold and the “fold enrichment of double transduced T cells (FACS), BC46, 50 nM MTX 4 days” value (FOS-mDHFRmt_B-2A) was 8.3 fold. For the same molecule, the “fold enrichment of double transduced T cells (FACS), BC46, further 100 nM MTX 3 days, row 2” value (FOS-mDHFRmt_B-2A) was 10.4 fold and the “fold enrichment of double transduced T cells (FACS), BC46, further 100 nM MTX 3 days, row 3” value (FOS-mDHFRmt_B-2A) was 16.9 fold.
